The values below come from article PMC5893306 (Molecular pharmaceutics, 2018).

SMILES strings stand for the structures.

Series [1] is described as follows: Rat pharmacokinetics, IV and SC. The settings on record: for Vd / clearance / half-life / Tmax / bioavailability: Sprague-Dawley, rat, plasma; for reduction of clearance / increase of IV half-life: IV; for extension of apparent half-life upon SC dosing: based on terminal-phase elimination. Type of series: in vivo, Sprague Dawley rats.
A short description of series [2]: Solubility in standard aqueous buffers. Type of series: physicochemical. The settings on record: standard aqueous buffers (e.g., PBS, HEPES) at physiological pH.
Series [3] is described as follows: Rat pharmacokinetics, IV and SC. The note with it: rat, in vivo, 1 mg/kg.

What is called half-life is how long it takes for the measured level to halve. Read a high half-life as slow loss. Broadly, the Tmax is the time from dosing to the highest level. By bioavailability is commonly meant dose-corrected exposure relative to a reference, in per cent. A high value points to good availability. As to `CCCCCCCCCCCCCCCCCCSC1CC(=O)N(CCC(=O)NCCOCCOCCOCCOCCOCCOCCOCCOCCOCCOCCOCCOCCOCCOCCOCCOCCOCCOCCOCCOCCOCCOCCOCCOCCC(=O)NC(COCCC(=O)NCCOCCOCCOCCOCCC(=O)NCCCC[C@@H](NC(=O)CNC(=O)[C@@H](CC(C)C)NC(=O)[C@@H](CCC(=O)O)NC(=O)[C@H]2CSSC[C@@H](NC(=O)[C@H]3CCCN3C(=O)[C@@H](Cc3c[nH]cn3)NC(C)=O)C(=O)N[C@H](CC(=O)O)C(=O)N[C@H](Cc3ccc(O)cc3)C(=O)N3CCC[C@@H]3C(=O)N[C@H](CCC(=O)O)C(=O)N[C@H](Cc3c[nH]c4ccccc34)C(=O)N[C@H](CCC(N)=O)C(=O)N[C@H](Cc3c[nH]c4ccccc34)C(=O)N[C@H](CC(C)C)C(=O)N2)C(N)=O)(COCCC(=O)NCCOCCOCCOCCOCCC(=O)NCCCC[C@@H](NC(=O)CNC(=O)[C@@H](CC(C)C)NC(=O)[C@@H](CCC(=O)O)NC(=O)[C@H]2CSSC[C@@H](NC(=O)[C@H]3CCCN3C(=O)[C@@H](Cc3c[nH]cn3)NC(C)=O)C(=O)N[C@H](CC(=O)O)C(=O)N[C@H](Cc3ccc(O)cc3)C(=O)N3CCC[C@@H]3C(=O)N[C@H](CCC(=O)O)C(=O)N[C@H](Cc3c[nH]c4ccccc34)C(=O)N[C@H](CCC(N)=O)C(=O)N[C@H](Cc3c[nH]c4ccccc34)C(=O)N[C@H](CC(C)C)C(=O)N2)C(N)=O)COCCC(=O)NCCOCCOCCOCCOCCC(=O)NCCCC[C@@H](NC(=O)CNC(=O)[C@@H](CC(C)C)NC(=O)[C@@H](CCC(=O)O)NC(=O)[C@H]2CSSC[C@@H](NC(=O)[C@H]3CCCN3C(=O)[C@@H](Cc3c[nH]cn3)NC(C)=O)C(=O)N[C@H](CC(=O)O)C(=O)N[C@H](Cc3ccc(O)cc3)C(=O)N3CCC[C@@H]3C(=O)N[C@H](CCC(=O)O)C(=O)N[C@H](Cc3c[nH]c4ccccc34)C(=O)N[C@H](CCC(N)=O)C(=O)N[C@H](Cc3c[nH]c4ccccc34)C(=O)N[C@H](CC(C)C)C(=O)N2)C(N)=O)C1=O` (stereo partly drawn) [C18-PIE12-trimer], in series [1] (iv), the Vd was found to be 0.227 L/kg, the clearance is 2.5 mL/min/kg and the half-life is 1.1 h. Further, in series [1] (sc), the Tmax turned out to be 2 h, the bioavailability was found to be 94% and the half-life is 1.4 h. For the same molecule, the “increase in half-life upon IV or SC dosing” value in series [1] (rats, IV or SC, compared to PIE12-trimer) was less than 2 fold. Further, the reduction of clearance in series [1] (rats, compared to PIE12-trimer) was 5-8 fold.
With `CC(=O)N[C@H](Cc1c[nH]cn1)C(=O)N1CCC[C@@H]1C(=O)N[C@@H]1CSSC[C@H](C(=O)N[C@H](CCC(=O)O)C(=O)N[C@H](CC(C)C)C(=O)NCC(=O)N[C@H](CCCCNC(=O)CCOCCOCCOCCOCCNC(=O)CCOCC(COCCC(=O)NCCOCCOCCOCCOCCC(=O)NCCCC[C@@H](NC(=O)CNC(=O)[C@@H](CC(C)C)NC(=O)[C@@H](CCC(=O)O)NC(=O)[C@H]2CSSC[C@@H](NC(=O)[C@H]3CCCN3C(=O)[C@@H](Cc3c[nH]cn3)NC(C)=O)C(=O)N[C@H](CC(=O)O)C(=O)N[C@H](Cc3ccc(O)cc3)C(=O)N3CCC[C@@H]3C(=O)N[C@H](CCC(=O)O)C(=O)N[C@H](Cc3c[nH]c4ccccc34)C(=O)N[C@H](CCC(N)=O)C(=O)N[C@H](Cc3c[nH]c4ccccc34)C(=O)N[C@H](CC(C)C)C(=O)N2)C(N)=O)(COCCC(=O)NCCOCCOCCOCCOCCC(=O)NCCCC[C@@H](NC(=O)CNC(=O)[C@@H](CC(C)C)NC(=O)[C@@H](CCC(=O)O)NC(=O)[C@H]2CSSC[C@@H](NC(=O)[C@H]3CCCN3C(=O)[C@@H](Cc3c[nH]cn3)NC(C)=O)C(=O)N[C@H](CC(=O)O)C(=O)N[C@H](Cc3ccc(O)cc3)C(=O)N3CCC[C@@H]3C(=O)N[C@H](CCC(=O)O)C(=O)N[C@H](Cc3c[nH]c4ccccc34)C(=O)N[C@H](CCC(N)=O)C(=O)N[C@H](Cc3c[nH]c4ccccc34)C(=O)N[C@H](CC(C)C)C(=O)N2)C(N)=O)NC(=O)CCOCCOCCOCCOCCOCCOCCOCCOCCOCCOCCOCCOCCOCCOCCOCCOCCOCCOCCOCCOCCOCCOCCOCCOCCNC(=O)CCN2C(=O)CC(S[C@H]3CC[C@@]4(C)C(=CC[C@H]5[C@@H]6CC[C@H]([C@H](C)CCCC(C)C)[C@@]6(C)CC[C@@H]54)C3)C2=O)C(N)=O)NC(=O)[C@@H](CC(C)C)NC(=O)[C@@H](Cc2c[nH]c3ccccc23)NC(=O)[C@@H](CCC(N)=O)NC(=O)[C@@H](Cc2c[nH]c3ccccc23)NC(=O)[C@@H](CCC(=O)O)NC(=O)[C@H]2CCCN2C(=O)[C@@H](Cc2ccc(O)cc2)NC(=O)[C@@H](CC(=O)O)NC1=O` (stereo partly drawn) [Chol-PIE12-trimer], the Vd in series [1] (iv) was determined as 0.134 L/kg. In addition, in series [1] (sc), the Tmax worked out at 4 h and the bioavailability was 73%. In series [1] (rats, compared to PIE12-trimer), the “increase of IV half-life” value stood at 3 fold, the reduction of clearance is 14-18 fold and the “extension of apparent half-life upon SC dosing” value is ~ 3 fold. Also, the solubility in series [2] is recorded as ~ 40 mg/ml. The half-life in series [3] (male, iv, pH 7.4) was 1.6 h. The molecule also showed a bioavailability in series [3] (male, sc) of 51%. In addition, the C0 in series [3] (iv) was 4.53 µM.
Consider `CC(=O)N[C@H](Cc1c[nH]cn1)C(=O)N1CCC[C@@H]1C(=O)N[C@@H]1CSSC[C@H](C(=O)N[C@H](CCC(=O)O)C(=O)N[C@H](CC(C)C)C(=O)NCC(=O)N[C@H](CCCCNC(=O)CCOCCOCCOCCOCCNC(=O)CCOCC(C)(COCCC(=O)NCCOCCOCCOCCOCCC(=O)NCCCC[C@@H](NC(=O)CNC(=O)[C@@H](CC(C)C)NC(=O)[C@@H](CCC(=O)O)NC(=O)[C@H]2CSSC[C@@H](NC(=O)[C@H]3CCCN3C(=O)[C@@H](Cc3c[nH]cn3)NC(C)=O)C(=O)N[C@H](CC(=O)O)C(=O)N[C@H](Cc3ccc(O)cc3)C(=O)N3CCC[C@@H]3C(=O)N[C@H](CCC(=O)O)C(=O)N[C@H](Cc3c[nH]c4ccccc34)C(=O)N[C@H](CCC(N)=O)C(=O)N[C@H](Cc3c[nH]c4ccccc34)C(=O)N[C@H](CC(C)C)C(=O)N2)C(N)=O)COCCC(=O)NCCOCCOCCOCCOCCC(=O)NCCCC[C@@H](NC(=O)CNC(=O)[C@@H](CC(C)C)NC(=O)[C@@H](CCC(=O)O)NC(=O)[C@H]2CSSC[C@@H](NC(=O)[C@H]3CCCN3C(=O)[C@@H](Cc3c[nH]cn3)NC(C)=O)C(=O)N[C@H](CC(=O)O)C(=O)N[C@H](Cc3ccc(O)cc3)C(=O)N3CCC[C@@H]3C(=O)N[C@H](CCC(=O)O)C(=O)N[C@H](Cc3c[nH]c4ccccc34)C(=O)N[C@H](CCC(N)=O)C(=O)N[C@H](Cc3c[nH]c4ccccc34)C(=O)N[C@H](CC(C)C)C(=O)N2)C(N)=O)C(N)=O)NC(=O)[C@@H](CC(C)C)NC(=O)[C@@H](Cc2c[nH]c3ccccc23)NC(=O)[C@@H](CCC(N)=O)NC(=O)[C@@H](Cc2c[nH]c3ccccc23)NC(=O)[C@@H](CCC(=O)O)NC(=O)[C@H]2CCCN2C(=O)[C@@H](Cc2ccc(O)cc2)NC(=O)[C@@H](CC(=O)O)NC1=O` [PIE12-trimer], for which, in series [1] (iv), the Vd worked out at 0.704 L/kg, the clearance was 13.9 mL/min/kg and the half-life was 0.6 h. In series [1] (sc), the Tmax was found to be 0.5 h and the half-life was 0.8 h.
Turning to `CCCCCCCCCCCCCCCC(=O)N[C@H](CSC1CC(=O)N(CCC(=O)NCCOCCOCCOCCOCCOCCOCCOCCOCCOCCOCCOCCOCCOCCOCCOCCOCCOCCOCCOCCOCCOCCOCCOCCOCCC(=O)NC(COCCC(=O)NCCOCCOCCOCCOCCC(=O)NCCCC[C@@H](NC(=O)CNC(=O)[C@@H](CC(C)C)NC(=O)[C@@H](CCC(=O)O)NC(=O)[C@H]2CSSC[C@@H](NC(=O)[C@H]3CCCN3C(=O)[C@@H](Cc3c[nH]cn3)NC(C)=O)C(=O)N[C@H](CC(=O)O)C(=O)N[C@H](Cc3ccc(O)cc3)C(=O)N3CCC[C@@H]3C(=O)N[C@H](CCC(=O)O)C(=O)N[C@H](Cc3c[nH]c4ccccc34)C(=O)N[C@H](CCC(N)=O)C(=O)N[C@H](Cc3c[nH]c4ccccc34)C(=O)N[C@H](CC(C)C)C(=O)N2)C(N)=O)(COCCC(=O)NCCOCCOCCOCCOCCC(=O)NCCCC[C@@H](NC(=O)CNC(=O)[C@@H](CC(C)C)NC(=O)[C@@H](CCC(=O)O)NC(=O)[C@H]2CSSC[C@@H](NC(=O)[C@H]3CCCN3C(=O)[C@@H](Cc3c[nH]cn3)NC(C)=O)C(=O)N[C@H](CC(=O)O)C(=O)N[C@H](Cc3ccc(O)cc3)C(=O)N3CCC[C@@H]3C(=O)N[C@H](CCC(=O)O)C(=O)N[C@H](Cc3c[nH]c4ccccc34)C(=O)N[C@H](CCC(N)=O)C(=O)N[C@H](Cc3c[nH]c4ccccc34)C(=O)N[C@H](CC(C)C)C(=O)N2)C(N)=O)COCCC(=O)NCCOCCOCCOCCOCCC(=O)NCCCC[C@@H](NC(=O)CNC(=O)[C@@H](CC(C)C)NC(=O)[C@@H](CCC(=O)O)NC(=O)[C@H]2CSSC[C@@H](NC(=O)[C@H]3CCCN3C(=O)[C@@H](Cc3c[nH]cn3)NC(C)=O)C(=O)N[C@H](CC(=O)O)C(=O)N[C@H](Cc3ccc(O)cc3)C(=O)N3CCC[C@@H]3C(=O)N[C@H](CCC(=O)O)C(=O)N[C@H](Cc3c[nH]c4ccccc34)C(=O)N[C@H](CCC(N)=O)C(=O)N[C@H](Cc3c[nH]c4ccccc34)C(=O)N[C@H](CC(C)C)C(=O)N2)C(N)=O)C1=O)C(=O)O` (stereo partly drawn) [Palm-PIE12-trimer], in series [1] (iv), the Vd was found to be 0.144 L/kg and the half-life was 1.8 h. Moreover, in series [1] (sc), the Tmax is 1 h and the half-life was 2.2 h. Moreover, in series [1] (rats, compared to PIE12-trimer), the “increase of IV half-life” value is recorded as 3 fold, the reduction of clearance is given as 14-18 fold and the “extension of apparent half-life upon SC dosing” value is given as ~ 3 fold.
